# Reference: article PMC9289625
# Test system: His:paALKBH5-like (Gypsy_Pa_2799 ORF2) (Phalaenopsis aphrodite)
# Test: EMSA
# Conditions: EMSA: 10 mM Tris-HCl pH 8.0, 100 mM NaCl, 50% glycerol, 1 U RiboLock, 30 min at 4 C; Northwestern: 10 mM Tris-HCl pH 7.5, 1 mM EDTA, 0.1 M NaCl, 0.05% Triton …
substance,measurement,value
AMV RNA 3 5'UTR transcript,Kd,210 nM
